Measured values reported in patent publication US20240360224A1 (ORIONIS BIOSCIENCES, published 2024).

Biological target: T1, human Clec9A (human, UniProt Q6UXN8 1-241)
T1 construct: Expressed on transfected CHO-K1, HEK293-T and HL116 cells, or native on human dendritic cells; also called hClec9A; C-type lectin domain family 9 member A
Assay: flow cytometry, crude periplasmic extracts on CHO-K1 cells stably transfected with human Clec9A
Experimental: A VHH library was constructed from an immunized of a llama. Three consecutive rounds of panning of a VHH library were performed in solution using stably transfected CHO-K cells expressing human Clec9A. The enrichment for antigen-specific phages was assessed after each round of panning by comparing the number of phagemid particles eluted from transfected cells (output) with the number of phagemid particles used for panning (input). The phage output increased about 10-fold in the 2nd round and about 10³-fold in the 3rd round, as compared to the output from the 1st round. The input phage was always about 10¹¹ and the output from first round was about 10⁸ phage particles. 285 randomly selected colonies from the 1st, 2nd and 3rd panning rounds (95 from each round) were sequenced and then grouped based on CDR3 sequences. Using crude periplasmic extracts including VHHs, 95 unique sequences were analyzed by flow cytometry for specificity to human Clec9A using CHO-K1 cells stably transfected with human Clec9A. The parental non-transfected CHO-K1 cells served as negative control cell. An irrelevant VHH was used as negative nanobody control. […] Table B below provides a description of 66 clones representing the 66 different anti-human Clec9A VHH genes. E. coli TG1 harboring recombinant phagemid pMECS containing anti-human Clec9A VHH sequences was generated and stored at […]. […]

T1 sequence (Q6UXN8 whole entry, the tested form may be a part): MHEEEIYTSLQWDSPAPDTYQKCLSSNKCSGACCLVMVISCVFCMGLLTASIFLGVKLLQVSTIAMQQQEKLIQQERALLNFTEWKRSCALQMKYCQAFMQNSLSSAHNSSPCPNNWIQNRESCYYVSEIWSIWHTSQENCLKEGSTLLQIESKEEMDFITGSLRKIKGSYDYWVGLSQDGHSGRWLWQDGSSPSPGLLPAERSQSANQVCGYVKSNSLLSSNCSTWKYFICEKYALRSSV

B1: 2LEC 24 (VHH)
VHH: QVQLQESGGGLVQAGGSLRLSCAASGRTFSTYAMGWFRQAPGKERGLVAAISWSGGSTYYADSVKGRFTIFRDNAENTVYLQMNSLKPEDTAVYYCAAEAEGSGREGNFYERSWYQGQGTQVTVSS
notes: Entry includes C-terminal AAA-HA-His tag (pMECS); only five His are printed in the text
binding result: binds
